The values below come from US20190194322A1 (BIO TECHNE, published 2019).

B2: Recombinant human VSIG3 Fc Chimera (Fc fusion)
chain: LEVSESPGSIQVARGQTAVLPCTFTTSAALINLNVIWMVTPLSNANQPEQVILYQGGQMFDGAPRFHGRVGFTGTMPATNVSIFINNTQLSDTGTYQCLVNNLPDIGGRNIGVTGLTVLVPPSAPHCQIQGSQDIGSDVILLCSSEEGIPRPTYLWEKLDNTLKLPPTATQDQVQGTVTIRNISALSSGLYQCVASNAIGTSTCLLDLQVISPQPRNIGLIAGIEGRMDPKSCDKTHTCPPCPAPEAEGAPSVFLFPPKPKDTLMISRTPEVTCVVVDVSHEDPEVKFNWYVDGVEVHNAKTKPREEQYNSTYRVVSVLTVLHQDWLNGKEYKCKVSNKALPAPIEKTISKAKGQPREPQVYTLPPSRDELTKNQVSLTCLVKGFYPSDIAVEWESNGQPENNYKATPPVLDSDGSFFLYSKLTVDKSRWQQGNVFSCSVMHEALHNHYTQKSLSLSPGK
notes: also called rhVSIG3; rhVSIG-3

The target of experiment [1] is B2. The experiment in a line: SPR (Biacore), VSIG3-Fc immobilised, antibody as analyte (FIG. 14). The protocol: The affinity of these blocking antibodies to purified recombinant VSIG3 was measured by surface plasmon resonance (SPR) using a Biacore T200 in two assay orientations. […] Dilutions of antibody were then flowed over the surface and the double reference subtracted data fit to a 1:1 Langmuir binding model with Biacore T200 Evaluation Software version 3.1 (FIG. 14). In a separate assay, a fusion protein containing protein A/G/L (Novus Biologicals, Littleton, Colo.) was covalently immobilized to the surface of a CM5 chip by standard amine coupling chemistry. Antibody was captured, followed by dilutions of VSIG3 His-fusion. Double reference subtracted data were fit to a 1:1 Langmuir binding model as described above (FIG. 15).
For orientation: In SPR one partner is held on a chip, and binding of the other changes the refractive index at the surface.

Experiment [2] addresses T1, Recombinant human VISTA Fc Chimera (human (homo sapiens)).
T1 construct: also called rhVISTA; VISTA-Fc bait
Put plainly: ELISA, rhVISTA coated at 2 µg/mL, biotin-labelled rhVSIG3 titrated, streptavidin-HRP (FIG. 1A). (In an ELISA, binding on a coated surface is turned into a signal by an enzyme label.)
Text: The non-specific binding is subtracted and in all cases was less than 5% of the total signal.

The target of experiment [3] is T2, PD1 ectodomain coupled to pentamerizing rat COMP helix and alkaline phosphatase (AVEXIS prey) (rat, UniProt Q15116 25-170; P35444 28-72).
T2 construct: not shown: alkaline phosphatase enzyme
The experiment in a line: AVEXIS, VSIG3 Fc-fusion bait, PD1-COMP-AP prey (FIG. 12B). The text has this: (§1) FIG. 12B AVEXIS was used to screen interactions between VISTA and VSIG3, VSIG8, and PD1, and results were quantified by measuring absorbance at 650 nm using the alkaline phosphatase reagent BluePhos. […] FIG. 12C.
(§2) The ectodomains of VSIG3, VISTA, and other immunoregulatory receptors were cloned into a construct containing the rat cartilage oligomeric matrix protein (COMP), which forms a covalent, pentameric coiled-coil helix oligomer (Malashkevich et al. Science. 274 (1996) 761-5), followed by an alkaline phosphatase enzyme for detection. […] Conditioned media containing the oligomeric prey protein fused to the COMP helical oligomer and alkaline phosphatase was incubated and washed, and the interaction was quantitatively measured by detection of alkaline phosphatase activity using the BLUEPHOS reagent (KPL/Sera Care, Milford, Mass.).

Experiment [4] has as its target T3, VSIG8 ectodomain coupled to pentamerizing rat COMP helix and alkaline phosphatase (AVEXIS prey) (rat, UniProt P0DPA2 22-263; P35444 28-72).
T3 construct: not shown: alkaline phosphatase enzyme
T3 sequence (looked up): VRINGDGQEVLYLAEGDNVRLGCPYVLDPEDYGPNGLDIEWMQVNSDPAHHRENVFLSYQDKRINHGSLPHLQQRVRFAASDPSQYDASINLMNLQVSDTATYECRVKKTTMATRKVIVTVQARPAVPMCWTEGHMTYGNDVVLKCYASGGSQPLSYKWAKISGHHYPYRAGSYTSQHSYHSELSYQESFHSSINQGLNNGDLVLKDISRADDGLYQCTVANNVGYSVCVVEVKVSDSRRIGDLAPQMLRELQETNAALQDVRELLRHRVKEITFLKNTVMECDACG
Put plainly: AVEXIS, VSIG3 Fc-fusion bait, VSIG8-COMP-AP prey (FIG. 12B).
Text: as §1, §2

Experiment [5] concerns the target T4, VSIG3 ectodomain coupled to pentamerizing rat COMP helix and alkaline phosphatase (AVEXIS prey) (rat, UniProt Q5DX21 23-241; P35444 28-72).
T4 construct: used as conditioned medium; also called VSIG3 oligomer as prey; penta-VSIG3; not shown: alkaline phosphatase enzyme
T4 sequence (looked up): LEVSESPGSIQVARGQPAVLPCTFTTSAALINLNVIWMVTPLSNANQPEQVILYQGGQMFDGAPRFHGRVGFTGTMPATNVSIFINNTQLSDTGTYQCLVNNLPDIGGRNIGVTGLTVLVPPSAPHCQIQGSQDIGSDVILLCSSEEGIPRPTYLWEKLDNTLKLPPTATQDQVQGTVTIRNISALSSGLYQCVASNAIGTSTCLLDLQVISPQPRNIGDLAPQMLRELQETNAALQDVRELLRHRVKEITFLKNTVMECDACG
Put plainly: AVEXIS, VSIG8 Fc-fusion bait, VSIG3-COMP-AP prey (FIG. 12B).
Text: as §1, §2

B1: mouse anti-human VSIG3 monoclonal antibody from clone #973401 (antibody, IgG1, V domains shown)
VH: QVQLQQSAAELARPGASVKMSCKASGYTFATYTIHWVKQRPGQGLEWIGYINPSSGYTEYNQKFKDKTTLTADKSSSTAYMQLSSLTSEDSAVYYCARREVYGSGSMDYWGQGTSVTVSS
VL: QIVLTQSPALMSASPGEKVTMTCSASSSVSFMYWYHQKPRSSPKPWIYLTSNLASGVPARFSGSGSGTSYSLTISSMEAEDAATYYCQQWSSNPLTFGAGTKLELKR
notes: also called fusion 9734 clone 1
B1: in experiment [1], the binding result is “binds”. Broadly, the EC50 is the concentration needed to bring the measured effect to its halfway point. For the molecule B2, in experiment [2], the EC50 is approximately 0.25 µg/mL. The binding result in experiment [3] and in experiment [4] was “no binding” each time.

B3: VSIG8 Fc-fusion (AVEXIS bait) (Fc fusion, UniProt P0DPA2 22-263, looked up)
chain: VRINGDGQEVLYLAEGDNVRLGCPYVLDPEDYGPNGLDIEWMQVNSDPAHHRENVFLSYQDKRINHGSLPHLQQRVRFAASDPSQYDASINLMNLQVSDTATYECRVKKTTMATRKVIVTVQARPAVPMCWTEGHMTYGNDVVLKCYASGGSQPLSYKWAKISGHHYPYRAGSYTSQHSYHSELSYQESFHSSINQGLNNGDLVLKDISRADDGLYQCTVANNVGYSVCVVEVKVSDSRRIG
notes: extracellular domain; not shown: Fc
On to B3, for which the binding result in experiment [5] was “no binding”.

B4: mouse anti-human VSIG3 monoclonal antibody from clone #973428 (antibody, IgG1, V domains shown)
VH: EVQLVESGGDLVKPGGSLKLSCAASGFTFNSYGMSWVRQTPDKRLEWVAIISSGGSYTYYPDSVKGRFTISRDNAKNTLYLQMSSLKSEDTAMYYCARLSYYYGSSPYAMDYWGQGTSVTISS
VL: DIVLTQSPASLAVSLGQRATISCRASKSVSTSGYSYMHWYQQKPGQSPKLLIYLASNLESGVPARCSGSGSGTDFTLNIHPVEEEDAATYYCQHSRELPYTFGGGTKLEIKR
notes: also called fusion 9734 clone 28
B4: the binding result in experiment [1] is “binds”.
